{"source": "patent US20220162291A1", "about": "(DUKE UNIVERSITY, published 2022)", "binders": {"B1": {"name": "22D10 (antibody, V domains shown)", "VH": "DVQLQESGPALVKPSQTVSLTCTVTGYSITNGNHWWNWIRQVSGSKLEWLGYIRSSGSSDSNPSLKSRISITRDTSKNQLFLHLNSMTTEDIATYYCARGGGLRHYFDYWGQGTTLTVSS", "VL": "DIQMTQSPASLSASVGDTVTITCRASGNIHNYLAWYHQKQGKSPQLLVYHAETLTDGVPSRFSGSGSGTQYSLKINSLQPEDFGSYYCQHFWSTPYTFGGGTKLEIKR", "notes": "Recombinant mouse IgG (made as IgG1 and IgG2c)"}, "B2": {"name": "33B8 (antibody, V domains shown)", "VH": "EVKLVESGGGLVQPGGSLSLSCATSGFTFTDYYMNWVRQPPGKALEWLGFIRNKANGYTTEYSASVKGRFTISRDNSQSILYLQMNSLRAEDSATYYCACGNYVGYAMDYWGQGTSVTVSS", "VL": "DIVMSQSPSSLAVSAGEKVTMSCKSSQSLLNSRTRKNYLAWYQQKPGQSPKLLIYWASTRESGVPDRFTGSGSGTDFTLTISSVQAEDLAVYYCKQSYNLYTFGGGTKLEIKR", "notes": "as for B1"}, "B3": {"name": "HSV010-7 (antibody, V domains shown)", "VH": "QVQLQQSGPELVKPGASVKLSCKASGYTFTNYDINWVKQRPGQGLEWIGWIYPRDGSTKYNEKFKGKATLTIDTSSSTAYMELHSLTSEDSAVYFCARGIFYVNYDVYWGQGTLVTVSA", "VL": "DIQMTQSSSFLSVSLGGRVTITCKASDHINNWLAWYQQKPGHAPRLLISGAASLETGVPSRFSGSGSGKDYTLTITSLQTEDVATYYCQQYWSSPLTFGGGTKLELKR", "notes": "Mouse monoclonal IgG"}, "B4": {"name": "HSV010-34 (antibody, V domains shown)", "VH": "EVQLVESGGGLVQPGESLKLSCESNEYEFPSHDMSWVRKTPEKRLELVAAINSDGGSTYYPDTMERRFIISRDNTKKTLYLQMSSLRSEDTALYYCARHSSGYVLDYWGQGTSVTVSS", "VL": "B3 VL with F10Y, N31H, H42N, A52T, T74S, T76A, S94T, L96Y, L106I", "notes": "Mouse monoclonal IgG"}, "B5": {"name": "HSV010-4 (antibody, V domains shown)", "VH": "QVQLKESGPGLVAPSQSLSITCTVSGFSLSRHDVSWVRQPPGKGLEWLGVIWGDGSTNYHSALISRLSISKDNSKSQVFLKLNSLQNDDTATYYCAKEDYGIFPYWGQGTLVTVSA", "VL": "DIKMTQSPSSMYASLGEKVTITCKASQDISSYLSWFQQKPGKSPKTLIYRANRLVDGVPSRFSGSGSGQDYSLSISSLDYEDMGIYYCLQYDEFPLTFGAGTKLELKR", "notes": "Mouse monoclonal IgG"}, "B6": {"name": "HSV010-28 (antibody, V domains shown)", "VH": "QIQLVQSGPELKKPGETVKISCKASGYTFTTYGMSWVKQAPGKGLKWMGWINTYSGVSTYADDFKGRFAFSLETSASTAYLQINNLKNEDTATYFCAQVNYAMDYWGQGTSVTVSS", "VL": "DIVMTQSHKFLSTSVGDWVTITCKASQDVSTAVAWFQQKPGQSPKVLIYSASYRYTGVPDRFTGSGSGTDFTFTISSVQAEDLAVYYCQQHYSTPRTFGGGTKLEIKR", "notes": "Mouse monoclonal IgG"}}, "note": "Numbering of substitutions follows the chain as printed.", "data": [{"molecular_target": "T1, glycoprotein B of HSV-1 (gB-1) (HSV-1, UniProt P10211 31-730)", "assay": "Luminex multiplex assay on gB-1-conjugated microspheres", "description": "The gB-1 binding of the antibodies was determined by Luminex multiplex assay. Mixtures of antigen (gB-1)-conjugated microspheres (1,000 counts each) were added to each well of 96-well filter plates (Millipore). […] Samples were diluted in PBS containing 1% cow milk, 1% BSA, 0.05% Tween 20 and 0.05% NaN₃. After washing, PE goat anti-mouse IgG was added to the plates and incubated for 1 hour at room temperature with mild agitation. After washing, microspheres were resuspended in PBS containing 1% BSA, 0.05% Tween 20 and 0.05% NaN₃ and fluorescent signals from each microsphere were measured in a Bio-Plex® 3D machine.", "values": [{"binder": "B1", "binding result": "no binding"}, {"binder": "B2", "binding result": "no binding"}]}, {"molecular_target": "T1, glycoprotein B of HSV-1 (gB-1)", "assay": "Luminex bead competition on gB-1; competitor BMPC-23 human IgG at 2 ng/ml", "units": {"percent inhibition at 222 ng/ml": "%"}, "values": [{"binder": "B3", "percent inhibition at 222 ng/ml": "> 90"}, {"binder": "B4", "percent inhibition at 222 ng/ml": "> 80"}, {"binder": "B5", "percent inhibition at 222 ng/ml": "> 95"}, {"binder": "B6", "percent inhibition at 222 ng/ml": 30}]}]}
